According to patent US20220089704A1 (published 2022):
Values belong to the binder of their own block, whether it stands above or below them.

Experiments:
Human tau = Human tau (human, UniProt P10636 1-441); assay: direct binding ELISA
Human alpha-synuclein = Human alpha-synuclein (human, UniProt P37840 1-140); assay: direct binding ELISA

Chain of Human tau (P10636 other isoform, or with tags, fused parts or gaps): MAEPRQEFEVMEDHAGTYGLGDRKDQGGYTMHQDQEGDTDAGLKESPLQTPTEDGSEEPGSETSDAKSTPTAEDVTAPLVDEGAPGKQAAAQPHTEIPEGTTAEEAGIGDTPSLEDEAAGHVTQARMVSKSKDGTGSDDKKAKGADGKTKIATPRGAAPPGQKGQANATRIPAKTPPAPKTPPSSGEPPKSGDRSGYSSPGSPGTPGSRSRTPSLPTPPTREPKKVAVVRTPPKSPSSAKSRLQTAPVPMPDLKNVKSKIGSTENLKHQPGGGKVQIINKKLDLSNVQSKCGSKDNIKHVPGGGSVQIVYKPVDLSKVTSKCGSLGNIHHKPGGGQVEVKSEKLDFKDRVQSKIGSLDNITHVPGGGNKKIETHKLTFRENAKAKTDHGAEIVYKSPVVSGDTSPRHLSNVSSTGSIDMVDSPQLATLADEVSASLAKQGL

B2: 6C5 hIgG1 (antibody, V domains shown)
VH: QVQLVESGGGVVQPGRSLRVSCAASGFTFSSYDMHWVRQAPGKGLEWVAVIWFDGSNEFYADSVKGRFTISRDNSKNTLFLQMNSLRAEDTAVYYCARDLGASVTTSNAENFHHWGQGTLVTVSS
VL: SYELTQPPSVSVSPGQTARITCSGDALPKRYVYWYQQKSGQAPVLVIYEDSKRPSGIPETFSGSSSGTMATLTISGAQVEDEADYYCYSTDSNGHHWVFGGGTKLTVLG
EC50 (Human tau): 0.52 nM

B4: 12F4 hIgG1 (antibody, V domains shown)
VH: EVQLVESGGGLVEPGGSLRLSCAVSGFDFEKAWMSWVRQAPGQGLQWVARIKSTADGGTTSYAAPVEGRFIISRDDSRNMLYLQMNSLKTEDTAVYYCTSAHWGQGTLVTVSS
VL: SYELTQPPSVSVSPGQTARITCSGEALPMQFAHWYQQRPGKAPVIVVYKDSERPSGVPERFSGSSSGTTATLTITGVQAEDEADYYCQSPDSTNTYEVFGGGTKLTVLS
EC50 (Human alpha-synuclein): 2.7 nM

The remaining lines, values ahead:

EC50 (Human tau): 0.74 nM
B1: FC5-H62(T33C/A104C)-G4S-6C5 hIgG1 (HC) (bispecific antibody)
heavy: not shown
light: SYELTQPPSVSVSPGQTARITCSGDALPKRYVYWYQQKSGQAPVLVIYEDSKRPSGIPETFSGSSSGTMATLTISGAQVEDEADYYCYSTDSNGHHWVFGGGTKLTVLGQPKAAPSVTLFPPSSEELQANKATLVCLISDFYPGAVTVAWKADSSPVKAGVETTTPSKQSNNKYAASSYLSLTPEQWKSHRSYSCQVTHEGSTVEKTVAPTECS

EC50 (Human tau): 0.98 nM
B3: FC5-H62(T33C/A104C)-G4S-6C5 (LC) (bispecific antibody)
heavy: not shown
light: DVQLVESGGGLVQPGGSLRLSCAASGFKITHYCTGWFRQAPGKEREFVSRITWGGDNTFYSNSVKGRFTISRDNSKNTVYLQMNSLRAEDTAVYYCAAGSTSTCTPLRVDYWGQGTLVTVSSGGGGSSYELTQPPSVSVSPGQTARITCSGDALPKRYVYWYQQKSGQAPVLVIYEDSKRPSGIPETFSGSSSGTMATLTISGAQVEDEADYYCYSTDSNGHHWVFGGGTKLTVLGQPKAAPSVTLFPPSSEELQANKATLVCLISDFYPGAVTVAWKADSSPVKAGVETTTPSKQSNNKYAASSYLSLTPEQWKSHRSYSCQVTHEGSTVEKTVAPTECS
